First the molecules themselves.
B1: HDV Ribozyme (parent)
chain: GGCCGGCAUGGUCCCAGCCUCCUCGCUGGCGCCGGCUGGGCAACAUUCCGAGGGGACCGUCCCCUCGGUAAUGGCGAAUGGGACCCA

The data set covers variants of B1. The data set can be described thus: self-cleavage, relative activity (ratio to wild type); higher = more cleavage; co-transcriptional.
Turning to G17C G31A, the self-cleavage turned out to be 0.0652.
Then G17C G31U, with 0.0831; and G17C C41U, with 0.0449; and A16U G17C, with 0.68.
Regarding A16U G17U, the self-cleavage was found to be 0.589.
Next, G17A A56G: 0.59.
Then G17A A56C, with 0.847; and G17A A70U, with 0.616; and A16U U72G, with 0.465.
For the variant A16U U47A, the self-cleavage was determined as 0.639.
G17C C85G: the self-cleavage is 0.185.
As for G17C C85U, the self-cleavage stood at 0.156.
On to G17C C85A, for which the self-cleavage turned out to be 0.388.
Next, G17A C84A: 0.807.
With G17A C84G, the self-cleavage amounted to 0.623.
Then G17A C84U, with 0.598; and G17A G80A, with 0.205; and G17A G80U, with 0.198.
As to A16U U20G, the self-cleavage worked out at 0.0791.
In the case of G17C C62A, the self-cleavage was determined as 0.252.
Turning to G17C C62G, the self-cleavage was 0.0723.
Then G17C U60A, with 0.575; and G17C U20A, with 0.0573.
As to G17U A83U, the self-cleavage is 0.34.
Then A16U C32G, with 0.156; and G17C G80C, with 0.0906; and G17C C30A, with 0.342.
Then G17C C30G, with 0.684.
As to G17C C30U, the self-cleavage was determined as 0.655.
For the variant G17C G67C, the self-cleavage was determined as 0.289.
A16U C84U: the self-cleavage was found to be 0.678.
Turning to A16U C84G, the self-cleavage was 1.09.
Next, G17U C36G: 0; G17U C36A: 0.0665; G17A C61G: 0.406.
Consider G17A C61U, for which the self-cleavage is 0.904.
With G17C C26G, the self-cleavage stood at 0.0852.
Next, A16U G76U: 1.05; G17A U72A: 0.219.
As for A16U G67C, the self-cleavage was 0.978.
Then G17C C32A, with 0.
Consider A16U C57G, for which the self-cleavage worked out at 1.22.
Next, A16U C61G: 0.712; A16U C61U: 1.04.
Next, G17C C66U: 0.156.
Next, A16U G53A: 1.01.
In the case of G17A C26A, the self-cleavage came to 0.798.
Then G17A C26G, with 0.793; and A16U G29A, with 0.0378.
A16U G29U: the self-cleavage was found to be 0.113.
As to A16U G29C, the self-cleavage was determined as 0.104.
Turning to A16U G81U, the self-cleavage stood at 0.554.
Turning to A16U G81C, the self-cleavage turned out to be 0.342.
A16U A83C: the self-cleavage was determined as 0.575.
As for G17A G67U, the self-cleavage was 0.776.
Regarding G17A G52A, the self-cleavage was determined as 0.831.
On to G17A C32A, for which the self-cleavage was determined as 0.0852.
Regarding G17C C21G, the self-cleavage worked out at 0.145.
Then G17U A71C, with 0.383; and G17A G39A, with 0.095.
Next, G17A G39U: 0.197.
With A16U C85U, the self-cleavage is 1.03.
With G17C G54C, the self-cleavage was 0.447.
Next, G17A A83G: 0.7.
Then G17A A83U, with 0.565; and A16U C58U, with 0.962; and A16U C58A, with 1.09.
On to G17U A51U, for which the self-cleavage amounted to 0.491.
As to G17C A43U, the self-cleavage was 0.115.
In the case of G17C A43G, the self-cleavage worked out at 0.
Next, G17U A87C: 0.389.
Then G17A G40A, with 0.655; and A16U U79C, with 0.705; and A16U C86A, with 1.03.
Then A16U C19U, with 0.122.
A16U C19G: the self-cleavage was 0.
Then A16U C48G, with 1.2.
Next, G17U C44A: 0.323; G17U C44G: 0.222; G17U C44U: 0.146.
As to G17A C30G, the self-cleavage came to 0.631.
On to G17C U23G, for which the self-cleavage worked out at 0.123.
As for G17U A77C, the self-cleavage is 0.166.
Then G17A U69G, with 0.906.
Next, G17A U69C: 0.786; G17U C49U: 0.356.
Next, G17U C49G: 0.356.
Consider A16U C18U, for which the self-cleavage amounted to 0.427.
Then A16U C18G, with 0.227.
Next, G17C C49U: 0.332; G17C C24U: 0.106; A16U C33A: 0.0639.
For the variant G17U A78U, the self-cleavage came to 0.0739.
Next, G17U A78C: 0.131; G17A A42U: 0.119; G17A A42C: 0.229.
Then G17A A71C, with 0.151; and G17A G81U, with 0.182; and G17A G81C, with 0.204.
Then G17A G74C, with 0.0346; and G17A G74U, with 0.197.
Take A16U U37A: the self-cleavage stood at 0.0554.
A16U U37G: the self-cleavage came to 0.
Next, A16U U37C: 0.929; G17A G34C: 0.0594.
Then G17A G34A, with 0.117.
Next, G17U C18A: 0.0978; G17U C18U: 0.189.
On to A16U G74C, for which the self-cleavage was 0.175.
Then A16U G74A, with 0.388; and G17C G38U, with 0.0898; and G17A U79A, with 0.627.
Then G17A U79C, with 0.514; and G17U C84A, with 0.445; and G17U C84U, with 0.487.
Then A16U A87U, with 0.862; and G17U A45U, with 0.244.
In the case of G17U A45G, the self-cleavage stood at 0.525.
For the variant G17U A45C, the self-cleavage came to 0.161.
Take G17U A56C: the self-cleavage is 0.415.
Then A16U G54C, with 0.955; and A16U G54U, with 0.771.
Then A16U G54A, with 0.795; and G17C C48G, with 0.252.
Regarding G17C C48A, the self-cleavage stood at 0.388.
Then G17U C24A, with 0.116.
Next, G17U C24U: 0.146.
Take G17U C24G: the self-cleavage was 0.128.
For G17C C75G, the self-cleavage worked out at 0.111.
Then G17C C75A, with 0.0536; and A16U C26G, with 0.831; and G17C C19G, with 0.
As to G17C C19A, the self-cleavage stood at 0.0519.
Then A16U C21G, with 0.0665.
In the case of A16U C21A, the self-cleavage came to 0.185.
In the case of A16U G50U, the self-cleavage turned out to be 0.889.
Next, A16U G50C: 1.03; G17A A51U: 0.884; A16U U27A: 0.697.
Next, A16U U27C: 0.587.
For the variant G17A C57A, the self-cleavage came to 0.965.
Next, G17A C57U: 0.727; G17U C61G: 0.424; G17U C61A: 0.456.
In the case of G17A G82A, the self-cleavage was 0.272.
Next, G17A G82U: 0.346.
Then G17A G82C, with 0.166.
G17C C63A: the self-cleavage was found to be 0.306.
Then G17C C63G, with 0.244; and G17U C22U, with 0.0959; and G17U C22G, with 0.095.
Then G17C G25C, with 0.0475.
Then G17C G25A, with 0.131.
For the variant G17A C66G, the self-cleavage was 0.652.
For A16U C22A, the self-cleavage turned out to be 0.604.
Then G17A G25C, with 0.158; and G17U C75G, with 0.0594; and G17U C75U, with 0.181.
As for A16U G28C, the self-cleavage was found to be 0.
Next, A16U G28U: 0.222.
Then G17U C63G, with 0.509; and A16U G68C, with 1.03.
Then A16U G68A, with 1.09; and G17U C33U, with 0.326.
As to G17A A78C, the self-cleavage came out at 0.268.
Next, G17C G82U: 0; G17C G82A: 0.147.

The values are drawn from the RNAGym collection of RNA variant scans (doi:10.7554/elife.80360).
